{"source": "paper PMC8479633", "binders": {"B1": {"name": "wild type full-length SMAD2 (S2FLWT), Q15796 1-467 (natural protein)", "chain": "MSSILPFTPPVVKRLLGWKKSAGGSGGAGGGEQNGQEEKWCEKAVKSLVKKLKKTGRLDELEKAITTQNCNTKCVTIPSTCSEIWGLSTPNTIDQWDTTGLYSFSEQTRSLDGRLQVSHRKGLPHVIYCRLWRWPDLHSHHELKAIENCEYAFNLKKDEVCVNPYHYQRVETPVLPPVLVPRHTEILTELPPLDDYTHSIPENTNFPAGIEPQSNYIPETPPPGYISEDGETSDQQLNQSMDTGSPAELSPTTLSPVNHSLDLQPVTYSEPAFWCSIAYYELNQRVGETFHASQPSLTVDGFTDPSNSERFCLGLLSNVNRNATVEMTRRHIGRGVRLYYIGGEVFAECLSDSAIFVQSPNCNQRYGWHPATVCKIPPGCNLKIFNNQEFAALLAQSVNQGFEAVYQLTRMCTIRMSFVKGWGAEYRRQTVTSTPCWIELHLNGPLQWLDKVLTQMGSPSVRCSSMS"}}, "key": {"[1]": {"molecular_target": "wild type full-length SMAD2 (S2FLWT), Q15796", "test": "SAXS with ensemble optimisation", "details": "remark: other sources report otherwise"}, "[2]": {"molecular_target": "wild type full-length SMAD2 (S2FLWT), Q15796", "test": "SAXS with ensemble optimisation", "details": "remark: other sources report otherwise", "remark": "listed apart in the source"}}}
{"binder": "B1", "values": [{"measurement": "percent of the population as dimer", "setting": "[1]", "result": 18, "unit": "%"}, {"measurement": "percent of the population as trimer", "setting": "[1]", "result": 1, "unit": "%"}, {"measurement": "percent of the population as trimer", "setting": "[2]", "result": 16.4, "unit": "%"}]}
